Measured values as given in patent publication US20230070752A1 (KOREA ADVANCED INSTITUTE OF SCIENCE AND TECHNOLOGY, published 2023).

T1: IFNλR1 (UniProt Q8IU57 21-228, limits assumed)
T1 construct: Soluble protein used at 500, 1000 and 2000 nM in BLI; also called IFNLR1; interferon lambda receptor 1
T1 sequence (looked up): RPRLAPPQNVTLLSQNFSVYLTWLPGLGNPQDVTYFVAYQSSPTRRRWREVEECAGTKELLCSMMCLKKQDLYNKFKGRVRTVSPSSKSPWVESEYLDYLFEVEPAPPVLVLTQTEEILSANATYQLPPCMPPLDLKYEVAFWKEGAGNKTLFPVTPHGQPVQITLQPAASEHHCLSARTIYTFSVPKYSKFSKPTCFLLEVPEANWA

T2: IL10Rβ (UniProt Q08334 20-220, limits assumed)
T2 construct: Soluble protein used at 500, 1000 and 2000 nM in BLI; also called IL10RB; interleukin-10 receptor beta
T2 sequence (looked up): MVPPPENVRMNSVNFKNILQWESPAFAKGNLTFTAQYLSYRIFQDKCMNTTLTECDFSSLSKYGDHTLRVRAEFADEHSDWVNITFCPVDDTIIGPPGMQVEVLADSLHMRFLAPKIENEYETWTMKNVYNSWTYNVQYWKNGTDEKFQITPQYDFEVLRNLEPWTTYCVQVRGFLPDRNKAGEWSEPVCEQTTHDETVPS


Tests used:
IFNλR1 [1] = biological target: T1, IFNλR1; experiment: BLI (BLItz), biotinylated IFNλ4 on streptavidin sensor, IFNλR1 in solution at 500-2000 nM, 1:1 global fit
Experimental: (§1) Sensorgrams were obtained from BLItz instrument. Data points are shown in grey and the corresponding fits are shown in red (IFNλR1) and blue (IL10Rβ). KD values were calculated from 1:1 global fitting.
(§2) The binding kinetics of the IFNλ4 variant to IFNλR1 and IL10Rβ were measured using biolayer light interferometry (BLI) in a BLItz system (ForteBio, Pall Life Sciences). The mixture was stirred in a washing buffer (200 mM NaCl, 20 mM Tris-HCl pH 8, 5% glycerol, 0.01% Tween-20) at 2,200 rpm. Analysis was performed at room temperature. 0.25 mg/ml of biotinylated IFNλ4 was loaded on the surface of the streptavidin biosensor (ForteBio) for 1 minute, and then the loaded biosensor was washed with a washing buffer (200 mM NaCl, 20 mM Tris-HCl pH 8, 5% glycerol, 0.01% Tween-20) for 2 minutes to remove unbound protein. The biosensor tip was immersed in drops containing the indicated concentrations of IFNλR1 and IL10Rβ (500, 1000 and 2000 nM). Associations (on rate, kon) were measured at intervals of 2 minutes. Subsequently, the sensor was immersed in the washing buffer for 2 minutes to measure dissociations (off-rate koff). KD measured in nanomoles was calculated as a ratio of […]. The resulting data was analyzed by fitting to a 1:1 ligand model using the entire global fitting function.
(§3) To investigate whether the mutation and the additional glycan on IFNλ4 variants affect their binding to their receptors, IL10Rβ and IFNλR1, in-vitro binding affinity of the IFNλ4 variants to IL10Rβ and IFNλR1 was evaluated using biolayer light interferometry (BLI) and then compared with that of wild-type IFNλ4 (eIFNλ4) purified from E. coli. Similar to eIFNλ4, the three IFNλ4 variants appropriately bound to the receptor, and the binding affinity for IFNλR1 was higher than the binding affinity for IL10Rβ (FIG. 4).

IL10Rβ [2] = biological target: T2, IL10Rβ; experiment: BLI (BLItz), biotinylated IFNλ4 on streptavidin sensor, IL10Rβ in solution at 500-2000 nM, 1:1 global fit
Experimental: as §1, §2, §3

IFNλR1 [3] = biological target: T1, IFNλR1; experiment: BLI (BLItz), biotinylated eIFNλ4 immobilized on streptavidin biosensor, IFNλR1 as analyte (500, 1000, 2000 nM), 1:1 global fit
Experimental: as §1, §2

IL10Rβ [4] = biological target: T2, IL10Rβ; experiment: BLI (BLItz), biotinylated eIFNλ4 immobilized on streptavidin biosensor, IL10Rβ as analyte (500, 1000, 2000 nM), 1:1 global fit
Experimental: as §1, §2

IFNλR1 [5] = biological target: T1, IFNλR1; experiment: BLI (BLItz), biotinylated eIFNλ4 immobilized on streptavidin biosensor, IFNλR1 as analyte (500, 1000, 2000 nM), 1:1 global fit; column head k dis
Experimental: as §1, §2

IL10Rβ [6] = biological target: T2, IL10Rβ; experiment: BLI (BLItz), biotinylated eIFNλ4 immobilized on streptavidin biosensor, IL10Rβ as analyte (500, 1000, 2000 nM), 1:1 global fit; column head k dis
Experimental: as §1, §2

IFNλR1 [7] = biological target: T1, IFNλR1; experiment: BLI (BLItz), biotinylated IFNλ4 variant immobilized on streptavidin biosensor, IFNλR1 as analyte (500, 1000, 2000 nM), 1:1 global fit
Experimental: as §1, §2

IL10Rβ [8] = biological target: T2, IL10Rβ; experiment: BLI (BLItz), biotinylated IFNλ4 variant immobilized on streptavidin biosensor, IL10Rβ as analyte (500, 1000, 2000 nM), 1:1 global fit
Experimental: as §1, §2

IFNλR1 [9] = biological target: T1, IFNλR1; experiment: BLI (BLItz), biotinylated IFNλ4 variant immobilized on streptavidin biosensor, IFNλR1 as analyte (500, 1000, 2000 nM), 1:1 global fit; column head k dis
Experimental: as §1, §2

IL10Rβ [10] = biological target: T2, IL10Rβ; experiment: BLI (BLItz), biotinylated IFNλ4 variant immobilized on streptavidin biosensor, IL10Rβ as analyte (500, 1000, 2000 nM), 1:1 global fit; column head k dis
Experimental: as §1, §2

Binder | Kd (IFNλR1 [1]) | Kd (IL10Rβ [2]) | kon (IFNλR1 [3]) | kon (IL10Rβ [4]) | koff (IFNλR1 [5]) | koff (IL10Rβ [6]) | kon (IFNλR1 [7]) | kon (IL10Rβ [8]) | koff (IFNλR1 [9]) | koff (IL10Rβ [10])
eIFNλ4 (wild-type IFNλ4 produced in E. coli, R&D Systems 9165-IL) (ligand, not glycosylated (E. coli); biotinylated for BLI, Bought as protein and used as the wild-type control; also called eIFNL4; control wild-type IFNλ4) MAPRRCLLSHYRSLEPRTLAAAKALRDRYEEEALSWGQRNCSFRPRRDPPRPSSCARLRHVARGIADAQAVLSGLHRSELLPGAGPILELLAAAGRDVAACLELARPGSSRKVPGAQKRRHKPRRADSPRCRKASVVFNLLRLLTWELRLAAHSGPCL | 19 nM | 71 nM | 21300 M⁻¹ s⁻¹ | 28800 M⁻¹ s⁻¹ | 0.000397 s⁻¹ | 0.00203 s⁻¹ |  |  |  | 
M1 (L28N) IFNλ4 variant (ligand, N-glycan at Asn61 (L28N not glycosylated); biotinylated for BLI, Secreted from Expi293F cells as a C-terminal Protein A fusion; Protein A was removed by thrombin at an LVPRGS site; Monomer by SDS-PAGE; also called L28N (M1)) AAPRRCNLSHYRSLEPRTLAAAKALRDRYEEEALSWGQRNCSFRPRRDPPRPSSCARLRHVARGIADAQAVLSGLHRSELLPGAGPILELLAAAGRDVAACLELARPGSSRKVPGAQKRRHKPRRADSPRCRKASVVFNLLRLLTWELRLAAHSGPCL | 14 nM | 49 nM |  |  |  |  | 50200 M⁻¹ s⁻¹ | 21300 M⁻¹ s⁻¹ | 0.000686 s⁻¹ | 0.00104 s⁻¹

The next lines start with the values.

Kd (IFNλR1 [1]) | Kd (IL10Rβ [2]) | kon (IFNλR1 [3]) | kon (IL10Rβ [4]) | koff (IFNλR1 [5]) | koff (IL10Rβ [6]) | kon (IFNλR1 [7]) | kon (IL10Rβ [8]) | koff (IFNλR1 [9]) | koff (IL10Rβ [10]) | Binder
22 nM | 51 nM |  |  |  |  | 29200 M⁻¹ s⁻¹ | 29100 M⁻¹ s⁻¹ | 0.000647 s⁻¹ | 0.00148 s⁻¹ | M3 (P73N) IFNλ4 variant (ligand, N-glycans at Asn61 and at P73N (Asn73); biotinylated for BLI, Secreted from Expi293F cells as a C-terminal Protein A fusion; Protein A was removed by thrombin at an LVPRGS site; Monomer by SDS-PAGE; also called P73N (M3)) AAPRRCLLSHYRSLEPRTLAAAKALRDRYEEEALSWGQRNCSFRPRRDPPRNSSCARLRHVARGIADAQAVLSGLHRSELLPGAGPILELLAAAGRDVAACLELARPGSSRKVPGAQKRRHKPRRADSPRCRKASVVFNLLRLLTWELRLAAHSGPCL
17 nM | 49 nM |  |  |  |  | 58300 M⁻¹ s⁻¹ | 26200 M⁻¹ s⁻¹ | 0.000967 s⁻¹ | 0.00129 s⁻¹ | M7 (L28N+P73N) IFNλ4 variant (ligand, N-glycans at Asn61 and at P73N (Asn73); L28N not glycosylated; biotinylated for BLI, Secreted from Expi293F cells as a C-terminal Protein A fusion; Protein A was removed by thrombin at an LVPRGS site; Monomer by SDS-PAGE; also called double mutant) AAPRRCNLSHYRSLEPRTLAAAKALRDRYEEEALSWGQRNCSFRPRRDPPRNSSCARLRHVARGIADAQAVLSGLHRSELLPGAGPILELLAAAGRDVAACLELARPGSSRKVPGAQKRRHKPRRADSPRCRKASVVFNLLRLLTWELRLAAHSGPCL
